Assay results as given in the Human Domainome abundance scans (Beltran et al. 2025).

B1: Transcription elongation factor A N-terminal and central domain-containing protein, residues 30 to 77; numbered along this chain, Q8N8B7 (parent)
chain: LTELETIYVTKEHLQETDVVRAVYRVLKNCPSVALKKKAKCLLSKWKA

Variants of: B1
Experiment: abundance fitness (aPCA) (normalised: wild type 0, dead -1); higher = more abundant; growth selection in yeast, the domain comes from the species named
Conditions: Homo sapiens

Abundance fitness: each site, then its substitutions
L43: K -1.04; Q -0.527; F 0.047; C -0.647; E -0.915; Y -0.256; T -1.05; V -0.272; R -0.889; D -0.829; M -0.138; S -1.04; W 0.127
K36: V 0.066; W 0.113; Y 0.049
K37: H -0.609; S -0.346; W -0.68; C -0.895; R 0.023; A -0.365; P -1.02; Q -0.553; E -0.248; T -0.574; G -0.578; N -0.155; I -0.337
K45: G -0.894; Y -0.1; S -0.55; D -0.443; F 0.204; P -0.667; L -0.513; E -0.748; T -0.656; V -0.918; R -0.123; I -1.01; Q -0.782; M -0.63; A -0.57; C -0.352; N -0.361
A48: H -0.331; P -0.565; R 0.034; L -1.22; V -0.62; W -0.469; T 0.162
S44: H 0.079; A -0.232; F -0.158; K -0.312; W -0.237; E -0.262; I -0.695; P -0.891; D -0.537; G -0.141; Y -0.398; V -0.48; C -0.73; N -0.351; M -0.148; R 0.021
W46: S -0.96; I 0.258; V -0.035; Q -0.792; Y -0.504; E -1.03; N -0.823; T -0.705; A 0.105; C -0.313; G -1.07; L 0.022; R -0.758; P -0.765; D -1.05
K47: F 0.101; D -0.762; T -0.351; N -0.625; I -0.47; G -0.605; S -0.967; V 0.019; E -1.08; W 0.025; A -0.739; M -0.252; L -0.508; R -0.431; Q -0.46; P -0.334; H -0.268
A39: T -0.512; S -0.745; C 0.072; L -0.089; I 0.2; V 0.096; Y -0.452; K -0.883; G -0.576; D -0.826; E -0.972; M -0.016; H -0.553; R -0.968; N -0.61
C41: H 0.239; Q 0.293; G 0.025; Y -0.558; I -0.202; M -0.232; K 0.171; L 0.047; D -0.182; E 0.019; F 0.005; T -0.073; V 0.042; N 0.268; R 0.167; P -1.22; S 0.093
K38: Q -0.645; R -0.061; H -0.529; I -0.266; L -0.024; W -0.252; C 0.099; E -0.933; P -0.679; A 0.023; G -0.209; F -0.193; D -0.885; T -0.11; Y -0.265; N 0.201
L42: K -1.13; G -1.05; W -0.026; S -0.77; I -0.283; F -0.174; N -0.871; M -0.203; T -0.703; P -1.01; Q -0.791; E -0.993; A -0.689; V -0.354; H -1.02; C -0.839; D -0.894; Y -0.737
